In publication PMC3098940 (ACS chemical biology, 2011):

Biological target: the molecule itself
Test: SEC

B1: phosphorylated Stat3β (residues 127-722), wildtype (domain or fragment, murine, UniProt P42227-2 127-722, looked up)
chain: GQANHPTAAVVTEKQQMLEQHLQDVRKRVQDLEQKMKVVENLQDDFDFNYKTLKSQGDMQDLNGNNQSVTRQKMQQLEQMLTALDQMRRSIVSELAGLLSAMEYVQKTLTDEELADWKRRQQIACIGGPPNICLDRLENWITSLAESQLQTRQQIKKLEELQQKVSYKGDPIVQHRPMLEERIVELFRNLMKSAFVVERQPCMPMHPDRPLVIKTGVQFTTKVRLLVKFPELNYQLKIKVCIDKDSGDVAALRGSRKFNILGTNTKVMNMEESNNGSLSAEFKHLTLREQRCGNGGRANCDASLIVTEELHLITFETEVYHQGLKIDLETHSLPVVVISNICQMPNAWASILWYNMLTNNPKNVNFFTKPPIGTWDQVAEVLSWQFSSTTKRGLSIEQLTTLAEKLLGPGVNYSGCQITWAKFCKENMAGKGFSFWVWLDNIIDLVKKYILALWNEGYIMGFISKERERAILSTKPPGTFLLRFSESSKEGGVTFTWVEKDISGKTQIQSVEPYTKQQLNNMSFAEIIMGYKIMDATNILVSPLVYLYPDIPKEEAFGKYCRPESQEHPEADPGSAAPYLKTKFICVTPFIDAVWK
modifications: phosphotyrosine at 705
In the case of B1, the “stoichiometry N” value is reported as 2.
